According to the DeepSol protein solubility set:

Assay: soluble on expression in E. coli; label from the status in PepcDB or PDB records

Sequence | soluble on expression in E. coli
MTTRRLALFDLDHTLLPLDSDYQWADFLARTGRAGDPAEARRRNDDLMERYNRGELTAEQAAEFMLGLLAAHSPVELAAWHEEFMRDVIRPSLTAQAVDVVRGHLAAGDLCALVTATNSFVTAPIARAFGVQHLIATDPEYRDGRYTGRIEGTPSFREGKVVRVNQWLAGMGLALGDFAESYFYSDSVNDVPLLEAVTRPIAANPSPGLREIAQARGWQVIDLFDHLEDAKS | not soluble
GSGSAMIEARQVSELSTRIISSVQMLSNAQNEQERKEAGRVLFEQLESLLTHIKELGGESFDSKLLDALESNVQNVINNLAELGVTVERKLWLAKEIDTRVEEMRLLSEELEQLTRTQVQNTSTIAVANVTHIYDLLEANKKDQVYQALDALVEVDLDLTERLHELHLLAFKMLNQIEEARTLTNVDRIQQIQTAFENNLKIMKRRVLAVEDPTRSKQMSQLLTELGKRQVVFTILLQQYENNEQSQQLMQKTLELFSELNSTVNKLVDDSNKTTT | soluble
MAHHHHHHMRAIQTLFIHSDKRVFLFPNTSNRTKYPSLITFPKIVLYSTPEAKRYRCVQKYLSTDFSSCSDNPHEILGRILRVPQSRSSMRKMLFTIPGIDPIQGILNGSRVCNELIRIKDVTWNRPHLIHAFFDHLPVFRFFLRSLVTLHPRTHRLHIHLVRAIHDDSRRSFLFLSFIIVAHAWR | not soluble
MGSDKIHHHHHHMLENTGLVLEGGGMRGVYTGGILEYFMEQDLYFPYVIGVSAGACHAASYLSRQRNRNKTVNIDYASHPKYLSYKNLWRKRQLFDMDFIFHEIPEKHVPFDFETYFNSPERFLVGTTDCETGQSVYFEKEGTNDDALNLLQASSSLPFIAPVVNYRGKQLLDGGISDPIPVRKAQEDGFKKSVVILTRNHGYAKKKSRFGWIAAKAYKKYPNLVNTMLNRYEVYNETLHYIEKEEQAGNLFVIRPEVPLQVDRMEKDTAKLQNLYEQGYEDAKRQFADLKAFLQK | not soluble
AIAKLTDSVLRSFRVAKVFRENSDKINCFDFSSNGETVISSSDDDSIVLYDCQEGKPKRTLYSKKYGVDLIRYTHAANTVVYSSNKIDDTIRYLSLHDNKYIRYFPGHNKRVVALSMSPVDDTFISGSLDKTIRLWDLRSPNCQGLMHLQGKPVCSFDPEGLIFAAGVNSEMVKLYDLRSFDKGPFATFKLQYERTCEWTGLKFSNDGKLILVSTNGGTLRVLDAFKGAVLHSFGGYNNSKGVILEAPFTPDSQFIMIGSEDGKIHVWNAESGMKVALLDGKHTGPVTCLQFNPKFMTFASACSNMAFWLPTIDD | soluble
MGSDKIHHHHHHMIGHSEVIRCFGMSGKVYFFNDSGNIQKGVHDLPPKGLACFVKIKNMMMQAKPAEVSMVDALVDPWLGAIGRDFEGYRNHCRRVFIFACTLAGAEGESREKIAIAAAFHDLGIWTDNTFDYLEPSKRLASAYLASTSKAEWTDEIKAMIEQHHKVTPWSCKPGWLVEPFRKADWIDVTLGARNFELNRSYIREIQRRYPNAGFHATLARLSFERMKTHPKDPLPMMRW | not soluble
MRDNKELTESKLHLDEFSAYLMSIDKSDSTIKTYIEHIQAFAKWFEETNCIDFDPAVITEIDIRDMRSYLQGTRHLKETTINLRLASLKCYFSFLESEKYIKHNPARNIRKIKLQSPNIAKSLDEQTYRALRRHVYRGGNKAHIAMFEIFTRCGVRNFELINIRLTDFDISDRKGTLKIVGKLNKVRYIPLHKDVRDAINNWMEIRKNIKTEYDNLFISERKTPYTRSGIWKIFKKYCEQIGITDVTIHSFRHYFCRTLLKNGVDISVVAKLAGHSSGFVTAQVYTIPRQEELEAAIETLV | not soluble
MAGILHNEGVKVAITTDHPVTRIQDLLICAGLAAKEGLGIEEGLKAITINPAEICNVANRVGSIEVNKDADIAIFDGNPMETFTKTMYTIINGEIVYSLKDLEHHHHHH | not soluble
MRRESYRERALVVRSYDFGEADRIIVLFTRGRGIVRGVAKGVRRAKSRFGSRLQPFVELDVQLYRGRNLESITAADTVAYFGAKIIDDVTRFSAASSILEGVEKLAVGDEPRLFDLTVTALKNMQSCAHPVAEVDTFLLQGMNIAGWAPSLFDCAQCGASGPHHAFHPSPGGAVCVHCRPLGAQEVDPETLHMMWLMAQGHRDAVAEIGTPERYQQAHALIRSHLSWHVERGLASLNVLDQV | not soluble
MAATVDTMSEEVKRLIALYELTPHPASGGWFRETYRSDVQVEAEGFDGKRSVLTMIYYLMQAGQPDPFHRVKSDETFVHNLGGSMKIHMIHPDGSYSCSILGNPLEHPEARHQVVVPRRVWFAQEVDGYCLASVLVAPGFDFKDFSLGKREELIKEYPQHRDVIMRCTSSDP | soluble
MNERIFRENTRPVQVGNLTIGGSEELTIQSMTTTKTHDVEATVAEIHRLEEVGCQIVRVACPDERAANALSAIKKRIHIPLVADIHFDYRLALKAIDAGVDKIRINPGNIGRRDRVEKVVNAAKAKNIPIRIGVNAGSLEKKIIQKYGYPTAEGMVESALAHIKILEDLDFYDIIVSLKASDVNLAIEAYDKASRAFNYPLHLGITESGTQFAGGIKSAAGLGAILSLGIGNTLRVSLSADPVEEIKVAREVLKSFGLSSNAAMLISCPTCGRIEIDLIRIANEVENYIATIKAPIKVAVLGCAVNGPGEAREADIGIAGSNGEGLLFRHGKIIRKVPEAIMVEELKKEIDILAEEYFEKKTDLESLR | not soluble
KKKKKKDPNEPQKPVSAYALFFRDTQAAIKGQNPNATFGEVSKIVASMWDGLGEEQKQVYKKKTEAAKKEYLKQLAAYRASLVSKSYTD | soluble
MMLRSHPNTLHITKLSHSAIHQLAPSFAQLPHTNHADGQYRLRRYSVIRFIDGQVVELDKHDFMQTDQINHFQGNVVRRFEPLLSTTLKSDGMRELCALFMEANTLPDGQEIEIHQMRIAAVFDETLVAPEGVHQDGFDHIAIVGIDRYNIVGGEIMLYLSSHEAPFFRKVLENGEVAMLADSQLWHNACPIRTVDHQQEGHMDVFVLTAKDGRHALHS | not soluble
MGSDKIHHHHHHQDGNQPALVDALVVNARTPGPAWWSVSKGDKKVWVLGIGAPVPADAKWDGRAFERRVKASRQLILVPPSKTRFEKNTIKADRKWLDELTEAERARLAEVATQTGRKLEFYTLFRPNFAGLLINSELQARAKPKMGKLLDLSVRARRLGARLVPAGGLDAQAMKASFQVGGKDSLICLRWAMRPRDAAALREQRAQAWMRGDVRTLLVGPAAYDPCVQAMAAMQASLENNEGALANTIAATLDRGDGAVALVGLVPLLREGGVLDQLRKRGYLIETPAQMDDED | not soluble
MGSDKIHHHHHHMVLMKKLMMKGNEAIAESAIRAGCRLYFAYPITPQSEIAEYMARRLPEVGGVFLQTESEIATVNMVYGAACTGKRVMTSTSSPGFSLMQEGISYIAGAELPCVFVDVVRGGPGLGNIQPSQGDYFQAVKGGGHGDYRLIVLAPSTLQEAVDLTQLAFDLADRYRNPVLILADGMIGQMMEPVELPEMRDLSTLPDHSDWALRGARNREPHRIAAFNIDPVGLEKMNKRLQEKYRLIEASEQRWEEYRVDGAEYLMVGYGTMGRILKSVVDSLREEGIPAGLFRPVTLWPFPKRRLKELAKKVQLIFVVEMSSGQMVEDVQISVEGKVPVHFYGRMGGVVPTPEEILFAFKEVRKWK | not soluble
MAHHHHHHMADRADHYINQLNDAYALKVGGIYNHSTLASSNHNKAHTFGSMPHALIQMFEGDVVKAVEAYHKTFPEDDLYALVDFHNDVISDSLACLKAFKNKLKAVRIDTSKALIDKMFSEGEAEYGVTQNQVKRLREALDANGGKHVKITVSSGFNAKRIKEFEDENTPVDTYGVGASLLKI | soluble
MAHHHHHHMTTERPCGERNGHTHSSSAADGTFDQPDTAVLLYGGLPPMPKPSVQRGEGSMEREFDQAAVSPSPVAAVAASSVVGGDTSPGSSPHIGVHEADDPTKNFDNSTEEEHMDLFISAMSPQNCVDRPQRRARGALMPPLPSPGEADAGAMMQSEMHTTPMTKTHTPDLRVTMYENQELRRELATVRASLRQALQTIETRELECVELHRLVDEMQAQLNGLKPEANLRPTQTDAQGNGEGSTRPEKSAFKLQATKDTTGPQIIGKYESKEEWRMTPSRELFAAEVKHDAHTEASTTTAIAAVKMNATDAPTTVEETISMGQLCEERDRLAKELAQTKIVVAEQETVLDRLGLRFPYPGALVAAARRTIPAFEPLRKSRKQKPGPLVVDRTTQMRGERAERRE | not soluble
MAKKKKKKSFNVTRPTDPPVYPVTVPILGHIIQFGKSPLGFMQECKRQLKSGIFTINIVGKRVTIVGDPHEHSRFFLPRNEVLSPREVYSFMVPVFGEGVAYAAPYPRMREQLNFLAEELTIAKFQNFVPAIQHEVRKFMAANWDKDEGEINLLEDCSTMIINTACQCLFGEDLRKRLDARRFAQLLAKMESSLIPAAVFLPILLKLPLPQSARCHEARTELQKILSEIIIARKAAAVNKDSSTSDLLSGLLSAVYRDGTPMSLHEVCGMIVAAMFAGQHTSSITTTWSMLHLMHPANVKHLEALRKEIEEFPAQLNYNNVMDEMPFAERCARESIRRDPPLLMLMRKVMADVKVGSYVVPKGDIIACSPLLSHHDEEAFPEPRRWDPERDEKVEGAFIGFGAGVHKCIGQKFGLLQVKTILATAFRSYDFQLLRDEVPDPDYHTMVVGPTASQCRVKYIRRKAAAAHHHHHHHH | soluble
MGSDKIHHHHHHMTYDFLIIGGGIAGTSAGAALSRLGTTCLLEAESALAYHASGRSAALFEPNYGHPVTVDLSHASATALRTLGGGVLSPRGLLILAGPGEDAALARDIKTMDLAEISIADAQDMIPILNADHITRAAHHAAAWDIDTDRMVQHYARQIRTNGAVETGATVLGLTKTPQGWTVETRDHSFHARIIVNAAGAWADDIARMAGIAPIGLTPKRRSMARMPAPRGHDVSAWPMIIGAGESWYAKPDAGAWLVSPAEEDPAAPHDAYADDMVLAEGIARYQPFVTEEVTRVTSSWAGLRTFAPDRCLVIGPDRTDPSVLWFAGQGGYGFQTAPAASQLLADLVSGAPSTLDPATVKALSPSRF | not soluble
MGSDKIHHHHHHMEHLPEQYRQLFPTLQTHTMLASCSQSALAEPVSRAIQDYYDSLLYKGTNWKEAIEKTEFARNEFAKLIGAEPDEVAIVPSVSDALVSVASSLTAFGKKHVVYTDMDFPAVPHVWQAHSDYTVSVIPSIDGVLPLEQYETHISDETVLTCVPHVHYRDGYVQDIKAIAEISQRKGSLLFVDAYQSAGHIPIDVKEWGVDMLAAGTRKYLLGIPGVAFLYVRKELADALKPKASAWFGRESGFDGAYAKVARRFQTGTPAFISVYAAAAALSLLNHIGVSHIRDHVKTICADAVQYAAEKGLQLAAAQGGIQPGMVAIRDERASETAGLLKKKKVICAPRENVIRLAPHFYNTKEEMRHAIDEIAAKTIHK | not soluble
MAHHHHHHMAAVFSTDASPSADVAVTAQFRVARGEYPTLAVLKQVPLLDDEALRLAMEKLAARRAGHTAGGGADGEPEGVDYTRYTTVDGEGTQACPCKDTGVWPAWVFSPGIQLMARRLRVRELSLEFLSLIDSMMAVNPADRPTAEAVLLDSPVFGMRMPWWEKVVEKAVRRVVEGKENVLLDVCVGDSDEEEEEDEEEAALVRRTMMPLVLPAENHGYVPHNVIHWWNVDLTRGEPDHTKWLSPTSLLASLLTTVRDLTGLEAARDAQDPVLREVPLYTATSLQFVERVCVPVRGTDVSARKIEDGPLFRELEAGGHSTGFFIHVQIRIRAIARAGQVLMANGWAEEEDVADQEEMARRAMEELVATTEKWLLSREATTGVAALHVLPWVSWHLNEEEAGTDGSTQHCFIVEYAAAGPGDGQPQPCANESSVTGEVSSVFRDWRANLTDGLQRLCCDDATAPDETTHDGASNAPRGGLRLEEKLEAMLDALEAVESELMERQKRNEAHQGLLQDHVVHWLSVRAAPSVERCMETLQGVCGGGDVSSQQIHEWILTTVFTSEGAMALMPVLRI | not soluble
